Assay [1] addresses T1, CXCL8 monomer (residues 1–66) (disulfides Cys9-Cys50 (printed) and Cys7-Cys34 (by convention), mature numbering; mature residue 1 = precursor 28 (offset +27), matching PDB 5WDZ entity 1 (66 aa); 15N-labelled for NMR). The experiment in a line: NMR titration; 200 μM 15N-CXCL8 titrated with unlabeled CXCR1 peptide (2.5 mM stock, molar ratios 0 to 8.4); 2D 1H-15N HSQC; shift changes fit to a 1:1 model for KD; line shape analysis (Bloch–McConnell, two-site exchange) for koff, kon = koff/KD; 50 mM sodium phosphate pH 6.0, 30 °C. The settings on record: both partners purified.

The target in assay [2] is T1, CXCL8 monomer (residues 1–66). Nature of the assay: ITC; 890 μM CXCR1 N-domain peptide injected into 80 μM CXCL8 monomer; 50 mM sodium phosphate pH 6.0, 25 °C; single-binding site model. Conditions: both partners purified.

One may read the Kd as a measure of binding affinity in units of concentration. In general, stoichiometry N refers to the number of molecules, sites or subunits per partner or assembly.

T1 sequence (chain, as listed by the source): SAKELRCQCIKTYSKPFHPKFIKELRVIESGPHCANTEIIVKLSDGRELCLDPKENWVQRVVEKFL

B1: CXCR1 N-domain peptide corresponding to the first 29 amino acids (29mer) (peptide, UniProt P25024 1-29, looked up)
chain: MSNITDPQMWDFDDLNFTGMPPADEDYSP
notes: CXCR1 receptor, N-terminal domain, first 29 amino acids (M1, S2 ... S28 named in the text); human by the discussion's contrast with the rabbit peptide; Recombinant peptide; 15N-labelled where it was the observed species in NMR, unlabelled otherwise; also called CXCR1 N-domain 29mer; CXCR1 N-terminal domain; source: E. coli BL21(DE3), purified
Regarding B1, the Kd in assay [1] was roughly 5 µM. Also, in assay [2], the affinity, expressed as Kd, was 8.4 ± 0.5 µM; the dH was -10.9 ± 0.837 kJ/mol; the “stoichiometry N” value was determined as 0.93 ± 0.03.
